Data on one molecule can be found in publication PMC2921341, “Interaction of Serum- and Glucocorticoid Regulated Kinase 1 (SGK1) with the WW-Domains of Nedd4-2 Is Required for Epithelial Sodium Channel Regulation” (PLoS ONE, 2010).

One assay has as its system ENaC. Kind of assay: Amiloride-sensitive short circuit current in FRT epithelia with ENaC: Nedd4-2 dose response with SGK, SGKY298A or GFP. In kind it is cell-based. The note with it: FRT epithelia with α-, β-, γENaC, increasing amounts of Nedd4-2 (0–0.2 µg), no SGK; amiloride 10 µM; n = 18. The protocol: To test the hypothesis that the interaction of the Nedd4-2 WW-domains with the SGK PY motif is required for SGK to influence Nedd4-2 function, we co-expressed α-, β- and γENaC in FRT epithelia with either wild type SGK or SGKY298A along with increasing amounts of Nedd4-2, and measured the amiloride-sensitive short circuit current.
Figure 4 The SGK PY motif is necessary for SGK to inhibit Nedd4-2. Amiloride-sensitive short-circuit sodium current (relative to 0 µg of Nedd4-2) in FRT cells 48 hr after transfection with α-, β- and γENaC and SGK (closed circles) or SGKY298A (open circles) or GFP (closed squares), in the presence of increasing amounts of Nedd4-2, n = 18. Nedd4-2 is expressed as a fraction of the amount of ENaC cDNA. Expression of SGK and SGKY298A was reported in Figure 1B of Snyder et al..
Fischer rat thyroid (FRT) cells were grown on permeable filter supports (Snapwell™, Corning USA or Millicell PCF, both with […] pore size, 12 mm diameter) in F-12 Coon's media with 5% fetal calf serum (Sigma), 100 U/ml penicillin, and 100 µg/ml streptomycin at 37°C. One day after seeding, cells were cotransfected with α-, β- and γENaC (0.07 µg each), 0.6 µg wildtype or mutant SGK, and 0–0.2 µg Nedd4-2 (Fig. 4 only). Total DNA was held constant (1 µg/millicell) using cloning vector DNA. The plasmids were mixed with Lipofectamine 2000 (Invitrogen) or TFX 50 (Promega, Madison, WI; 7.9 µg/millicell) in serum free F12 Coon's media for 15 minutes and transferred to the apical surface of the monolayer. One-six hours later, the apical media was replaced with F-12 Coon's media containing 5% fetal calf serum and amiloride (10 µM). Short-circuit current was measured […] after transfection in modified Ussing chambers connected to a voltage clamp (South Campus Electronics, Dunedin, New Zealand or Warner Instruments). The apical and basolateral surfaces were bathed in (in mM) 135 NaCl, 1.2 CaCl2, 1.2 MgCl2, 2.4 K2HPO4, 0.6 KH2PO4, 10 HEPES, pH 7.4, at 37°C and bubbled with O2. Amiloride-sensitive short-circuit current (Isc-amiloride) was determined as the difference in current with and without amiloride (10 µM) in the apical bathing solution. Data are presented as relative Isc-amiloride (Isc-amiloride relative) that was obtained by normalizing the Isc-amiloride to that of control cells transfected with αβγENaC in the same experiment. Transepithelial resistance (Rt) was monitored by applying repetitive voltage potential pulses (5 mV for 1 sec at 120 sec intervals) across the epithelium.

Another assay concerns SGK. The assay can be described thus: Co-immunoprecipitation of Nedd4-2 with SGK in COS7 cells. It counts as binding, human. The settings on record: Nedd4-2-FLAG and SGK-HA, IP anti-HA, blot anti-FLAG, data not shown. Here is the method: Co-immunoprecipitation was used to characterize an in vitro interaction between Nedd4-2 and SGK. Nedd4-2-FLAG and SGK-HA were co-expressed in COS7 cells, SGK was immunoprecipitated with anti-HA, and the presence of Nedd4-2 in the immunoprecipitates was assessed by western blotting with anti-FLAG. […] We reasoned that SGK would be rapidly turned over in the cells, and this would be enhanced by overexpression of active Nedd4-2, since Nedd4-2 is known to induce degradation of SGK [23]. Therefore we co-expressed a stable form of SGK (ΔN60SGK-HA, lacking the first 60 amino acids of SGK), together with a ligase-dead form of Nedd4-2 (Nedd4-2C821A–FLAG).
(A) ΔN60SGK-HA and Nedd4-2C821A–FLAG were transiently co-expressed, or expressed alone as indicated, in COS7 cells. Complexes were immunoprecipitated with anti-HA antibody. Immunoprecipitates were analyzed by 10% SDS-PAGE and sequential western blotting (IB) with anti-FLAG antibody (Nedd4-2) and anti-HA antibody (ΔN60SGK). Expression of the proteins (5% input) is shown in the bottom panel, n = 3. Either ΔN60SGK-HA (B, E) or SGK-FLAG (C, D) was transiently expressed in COS7 cells. […] Bound SGK was analyzed by immunostaining with anti-FLAG/HA antibody. […]
COS7 cells were co-transfected with ΔN60SGK-HA and Nedd4-2C821A-FLAG. […] The beads were washed four times in T-TBS and analysed by SDS-PAGE and Western blotting with anti-FLAG (Sigma).

B1: Nedd4-2: ubiquitin ligase, Nedd4-family member, human (protein)
chain: MERPYTFKDFLLRPRSHKSRVKGFLRLKMAYMPKNGGQDEENSDQRDDMEHGWEVVDSNDSASQHQEELPPPPLPPGWEEKVDNLGRTYYVNHNNRTTQWHRPSLMDVSSESDNNIRQINQEAAHRRFRSRRHISEDLEPEPSEGGDVPEPWETISEEVNIAGDSLGLALPPPPASPGSRTSPQELSEELSRRLQITPDSNGEQFSSLIQREPSSRLRSCSVTDAVAEQGHLPPPSAPAGRARSSTVTGGEEPTPSVAYVHTTPGLPSGWEERKDAKGRTYYVNHNNRTTTWTRPIMQLAEDGASGSATNSNNHLIEPQIRRPRSLSSPTVTLSAPLEGAKDSPVRRAVKDTLSNPQSPQPSPYNSPKPQHKVTQSFLPPGWEMRIAPNGRPFFIDHNTKTTTWEDPRLKFPVHMRSKTSLNPNDLGPLPPGWEERIHLDGRTFYIDHNSKITQWEDPRLQNPAITGPAVPYSREFKQKYDYFRKKLKKPADIPNRFEMKLHRNNIFEESYRRIMSVKRPDVLKARLWIEFESEKGLDYGGVAREWFFLLSKEMFNPYYGLFEYSATDNYTLQINPNSGLCNEDHLSYFTFIGRVAGLAVFHGKLLDGFFIRPFYKMMLGKQITLNDMESVDSEYYNSLKWILENDPTELDLMFCIDEENFGQTYQVDLKPNGSEIMVTNENKREYIDLVIQWRFVNRVQKQMNAFLEGFTELLPIDLIKIFDENELELLMCGLGDVDVNDWRQHSIYKNGYCPNHPVIQWFWKAVLLMDAEKRIRLLQFVTGTSRVPMNGFAELYGSNGPQLFTIEQWGSPEKLPRAHTCFNRLDLPPYETFEDLREKLLMAVENAQGFEGVD
modifications: left off: FLAG, C-terminal, kept
notes: ubiquitin ligase, Nedd4-family member, human
For B1, in the assay with ENaC, the “inhibition of ENaC by Nedd4-2 in the absence of SGK (in words)” value is on record as “inhibited ENaC in a dose-dependent manner”. In addition, the “co-immunoprecipitation with SGK (in words)” value in the assay with SGK was “co-precipitated with SGK but the amount of Nedd4-2 co-precipitated was small”.
